Assay: yeast display, Sf9 membrane polyspecificity reagent, FACS + sequencing; frameworks hold sequencing errors
In short: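 Sorting gates, low and high (top ~1%), were placed on anti-HA fluorescence to track expression and on streptavidin fluorescence to track reagent binding. A clone's polyreactivity label is taken from the gate it came out of. The reagent was 10% biotinylated, detergent-solubilized Sf9 membrane, applied for 1 hour at 4 °C to galactose-induced yeast display cells.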
For “QVQLVESGGGLVQAGGSLRLSCAASGGSFIANAMGRYRQAPGTEREVVAAITSGGSTNYADSVKGRFTISRDNAKNTVYLQMNSLKPDDTAVYYCNAEQNPSGLYDYRGVEGEMGYWGQGTQVTVSS”, the “polyreactivity (PSR sort gate)” value was “low polyreactivity”.
In the case of “QVQLVESGGGLVQAGGSLRLSCAASGGSFLVNDMGWYRQAPGTERELVAAITSGGGTYYADSVKGRFTISRDNAKNTVYLQMNSLNPEDTAVYYCARDTYRPIVSNESYGYWGQGTQVTVSS”, the “polyreactivity (PSR sort gate)” value is reported as “low polyreactivity”.
With “QVQLVESGGGLVQAGGSLRLSCAASGGTCGTNAMGWYRQAPGKEREFVAAISRSGGSTNYADSVKGRFTISRDKAKNTVYLQMNSLKPEDTAVYYCATRVIVVPLGGGYYSWGQGTQVTVSS” the “polyreactivity (PSR sort gate)” value was “high polyreactivity”.
With “QVQLVESGGGLVQAGGSLRLSCAASGGTFAGYAMGWYRQAPGKERELVAAITYRSSTTYYADSVKGRFTISRDNANNTVYLQMNSLKPEDTAVYYCAARTRGTGRNRDYWGQGTQVTVSS” the “polyreactivity (PSR sort gate)” value was “high polyreactivity”.
For “QVQLVESGGGLVQAGGSLRLSCAASGGTFATYAMGWYRQAPGKEKELVAAISWSGGSTYYADSVKGRFTISRDNAKNTVYLQMNSLKPEDTAVYYCNALPRLGGGAEKLDYWGQGTQVTVSS”, the “polyreactivity (PSR sort gate)” value was “high polyreactivity”.
For “QVQLVESGGGLVQAGGSLRLSCAASGGTFAVNAMGWYRQAPGKEREFVAAISSRGSTYYADSVKGRFTISRDNAKNNVYLQMNSLKPEDTAVYYCAAYRSYWEVYPRMYYWGQGTQVTVSS”, the “polyreactivity (PSR sort gate)” value was “high polyreactivity”.
For “QVQLVESGGGLVQAGGSLRLSCAASGGTFAYYAMGWYRQAPGKERELVAVISRRGTSTYYADSVKGRFTISRDNAKNTVYLQMNSLKPEDTAVYYCNARTWDHPYGYWGQGTQVTVSS”, the “polyreactivity (PSR sort gate)” value was “high polyreactivity”.
In the case of “QVQLVESGGGLVQAGGSLRLSCAASGGTFDVYTMGWYRPAPGKERELVAAISSSGARTYYADSVKGRFTISRDNAKNTVNLQMNSLKPEDTAVFYCATRSLGLRWHYYYWGQGTQVTVSS”, the “polyreactivity (PSR sort gate)” value is reported as “high polyreactivity”.
For “QVQLVESGGGLVQAGGSLRLSCAASGGTFDVYTMGWYRQAPGKERELVAAIDNGGSTNYADSVKGRFTISRDNAKNTVYLQMNSLQPEDTAVYYCAADEVYLFWGIAEFIYDYWGQGTQVTVSS”, the “polyreactivity (PSR sort gate)” value was “low polyreactivity”.
In the case of “QVQLVESGGGLVQAGGSLRLSCAASGGTFEFYTMGLYRQAPGKERELVAVINASGDSTYYADSVKGRFTISRDNAKNTVYLQMNSLKPEDTAVYYCAADHRGEYDYWGQGTQVTVSS”, the “polyreactivity (PSR sort gate)” value is reported as “low polyreactivity”.
For “QVQLVESGGGLVQAGGSLRLSCAASGGTFEPNAMGWYRQPPGKEREFVAAITWNGGRTNYADSVKGRFTISRDNAKNTVYLQMNSLKPEDTAVYYCAARSYTDYNYWGQGTQVTVSS”, the “polyreactivity (PSR sort gate)” value was “high polyreactivity”.
For “QVQLVESGGGLVQAGGSLRLSCAASGGTFESYTMGWYRQAPGKERELVATISTSGGRTYYADSVKGRFTISRDNAKNTVYLQMHSLKPEDTAVYYCNKVSDAYGEYVTLHLDYWGQGTLVTVSS”, the “polyreactivity (PSR sort gate)” value was “low polyreactivity”.
For “QVQLVESGGGLVQAGGSLRLSCAASGGTFFSNAMGWYRQAPGKERELVAGITSGGRTYYADSVKGRFTISRDNAKNTVYLQMNSLKPEDTAVYYCATQSWVRYGQPEFDYWGQGTQVTVSS”, the “polyreactivity (PSR sort gate)” value was “high polyreactivity”.
With “QVQLVESGGGLVQAGGSLRLSCAASGGTFGQYAMGWYRLAPGKERELVAAITSSGGRTYYADSVKGRFTISRDNAKNTVYLQMNSLKPEDTAVYYCAADVQSRYVGEGDYWGQGTQVTVSS” the “polyreactivity (PSR sort gate)” value was “high polyreactivity”.
In the case of “QVQLVESGGGLVQAGGSLRLSCAASGGTFGRNAMGWYRQAPGKERELVATITRRGGSTYYADSVKGRFTISRDNAKNTVYLQMNSLKPEDTAVYYCAAAGRYSNGTGYGYWGQGTQVTVSS”, the “polyreactivity (PSR sort gate)” value is reported as “high polyreactivity”.
In the case of “QVQLVESGGGLVQAGGSLRLSCAASGGTFGSYARGWYRQAPGNEREFVAAIRRGTSTYYADSVQGRFTISRDNAKNTVYLQMNRLKPEDTEVYYCAATPQAHSERYYYQRKYDYWGQGTQVTVSS”, the “polyreactivity (PSR sort gate)” value is reported as “low polyreactivity”.
With “QVQLVESGGGLVQAGGSLRLSCAASGGTFGTNTMGWYRQAPGKERELVAAISKRGGRTYYADSVKGRFTISRDNAKNTVYLQMNSLKPEDTAVYYCAADTGGNPKYDYWGQGTQVTVSS” the “polyreactivity (PSR sort gate)” value was “high polyreactivity”.
With “QVQLVESGGGLVQAGGSLRLSCAASGGTFGYYAMGWYRQAPGKERELVAAINRSDGGTYYADSVKGRFTISRDNAKNTVYLQMNSLKPEDTAVYYCNADDFYYDEPYDYWGQGTQVTVSS” the “polyreactivity (PSR sort gate)” value was “low polyreactivity”.
With “QVQLVESGGGLVQAGGSLRLSCAASGGTFIANAMGWYRQAPGKERELVATINANADTTYYADSVKGRFTISRDNAKNTVYLQMNSLKPEDTAVYYCAAAQRYPIKYYYWGQGTQVTVSS” the “polyreactivity (PSR sort gate)” value was “low polyreactivity”.
For “QVQLVESGGGLVQAGGSLRLSCAASGGTFKFYAMGWYRQAPGKERELVAAISRRGGNTYYADSVKGRFTISRDNAKNTVYLQMNSLKPEDTAVYYCAVDYRSTGFGYWGQGTQVTVSS”, the “polyreactivity (PSR sort gate)” value was “high polyreactivity”.
With “QVQLVESGGGLVQAGGSLRLSCAASGGTFLAYAMGWYRQAPGKERELVAAITRRGTRTYYADSVKGRFTISRDNANNTVYLQMNSLKPEDTAVYYCAVSGGFYWGQGTQVTVSS” the “polyreactivity (PSR sort gate)” value was “high polyreactivity”.
In the case of “QVQLVESGGGLVQAGGSLRLSCAASGGTFLGYAMGWYRQAPGKDRELVAAIAASGGNTYYADSVKGRFTISRDNAKNTVYLQMNSLKPEATAVYYGAARQYRSVLKYDYWGQGTQVTVSS”, the “polyreactivity (PSR sort gate)” value is reported as “high polyreactivity”.
With “QVQLVESGGGLVQAGGSLRLSCAASGGTFLYYAMGWYRQAPGKETELVAAISRGGSTHYADSVKGRFTISRDNAKNTVYLQMNSLKPEDTAVYYCAVDGGEFSSYGYWGQGTQVTVSS” the “polyreactivity (PSR sort gate)” value was “low polyreactivity”.
With “QVQLVESGGGLVQAGGSLRLSCAASGGTFPQYAKGWYRQAPGKEREFVADITTRGGTTYYADSVKGRFTISRDNAKNTVYLQMNSLKPEENAVYYCAADNPADWWGLDYWGQGTQVTVSS” the “polyreactivity (PSR sort gate)” value was “low polyreactivity”.
With “QVQLVESGGGLVQAGGSLRLSCAASGGTFPRYAMGWYRQAPGKERELVAAISRSGGSTYYADSVKGRFTISRDNAKNTVYLQMNSLKPEDTAVYYCATGYSYIMDYWGQGTQVTVSS” the “polyreactivity (PSR sort gate)” value was “high polyreactivity”.
In the case of “QVQLVESGGGLVQAGGSLRLSCAASGGTFPYNAMGWYRQAPGKERELVAVITSGDGTYYADSVKGRFTISRDNAKNTVYLQMNSLKPEDTAVYYCAADYVVWFSFVYVVEYDYWGQGTQVTVSS”, the “polyreactivity (PSR sort gate)” value is reported as “low polyreactivity”.
In the case of “QVQLVESGGGLVQAGGSLRLSCAASGGTFQRYAMGWYRQAPGKERELVAAISSGGRTYYADSVKGRFTISRDNAKNTVYLQMNSLKAVDTAVYYCNAVGWTRYWRIGWSAYYYWGQGTQETVSS”, the “polyreactivity (PSR sort gate)” value is reported as “high polyreactivity”.
With “QVQLVESGGGLVQAGGSLRLSCAASGGTFQSNALGWYRQAPAKERELVASITSRGSSTYYADSVKGRFTISRDNAKNTVYLQMNSLKPEDTAVYYCAKGRSWQIYYKGGIKGGYWGQGTQVTVSS” the “polyreactivity (PSR sort gate)” value was “low polyreactivity”.
With “QVQLVESGGGLVQAGGSLRLSCAASGGTFQSNAMGWYRQAPGKERELVASITSRGSSTYYADSVKGRFTISRDNAKNTFYLLMNSLKPEDTAVYYCAKGSSWQIYYKGGIKGGYWGQGTQVTVSS” the “polyreactivity (PSR sort gate)” value was “low polyreactivity”.
In the case of “QVQLVESGGGLVQAGGSLRLSCAASGGTFRANAMVWYRQAPGKERELVAAISFRGGTTYYADSVKGRFTISRDNAKTTVYLQMNSLKPEDTAVYYCAAGRRGSYYYWGQGTQVTVSS”, the “polyreactivity (PSR sort gate)” value is reported as “high polyreactivity”.
With “QVQLVESGGGLVQAGGSLRLSCAASGGTFRLNAMGWYRQAPGKERELVATITRRGGSTYYADSVKGRFTISRDNAKNTVYLQMNSLKPEDTAVYYCAARDVYRGGLFDYWGQGTQVTVSS” the “polyreactivity (PSR sort gate)” value was “high polyreactivity”.
With “QVQLVESGGGLVQAGGSLRLSCAASGGTFRVYAMGWYRQAPGKERELVAAISGGGRTYADSVKGRFTISRDNAKITVYLQMNSLKPEDTAVYYCNTRRYYRVTTVKRYDYWGQGTQVTVSS” the “polyreactivity (PSR sort gate)” value was “high polyreactivity”.
With “QVQLVESGGGLVQAGGSLRLSCAASGGTFRVYVMGLYRQATGKERELVAAISRGGGSTYYADSVKGRFTISRDNAKNTVYLQMNSLKPEDTAVYYCAARVWRYPWRASEYDYWGQGTQVTVSS” the “polyreactivity (PSR sort gate)” value was “high polyreactivity”.
With “QVQLVESGGGLVQAGGSLRLSCAASGGTFSFYAMGWYRQAPGKEREFVAAITASDGSTYYADSVKGRFTSSRDNAKNTVYLQMNSLKPEDTAVYYCAADAYGYKFNSWGQGTQVTVSS” the “polyreactivity (PSR sort gate)” value was “low polyreactivity”.
With “QVQLVESGGGLVQAGGSLRLSCAASGGTFSGYTMGWYRQAPGKERELVAAINWSGGRTYYADSVKGRFTISRDNAKNTAYLQMNSLKPEDTAVYYSNKYGLYYREYDYWGQGTQVTVSS” the “polyreactivity (PSR sort gate)” value was “high polyreactivity”.
With “QVQLVESGGGLVQAGGSLRLSCAASGGTFSPYDMGWYRQAPGKERELVASITGSGGSTYYADSVKGRFTISRGNAKNTVYLQMNSLKPEETAVYYCAAQGYWTYWPYLLRLYDYWGQGTQVTVSS” the “polyreactivity (PSR sort gate)” value was “low polyreactivity”.
For “QVQLVESGGGLVQAGGSLRLSCAASGGTFSTNAMGWYRQAPGKERELVAAISLSGGRTYADSVKGRFTISRDNAKNTVYLQMNSLKPEDTAVYYCNADSAGITRARSELDYWGQGTQVTVSS”, the “polyreactivity (PSR sort gate)” value was “low polyreactivity”.
In the case of “QVQLVESGGGLVQAGGSLRLSCAASGGTFSWYAMGWYRQAPGKERELVAAITARGGSTYYADSVKGRFTISRDNAKNTVYLQMNSLKPEDTAVYYCNKRTRSLVRYNSGGYSVGYWGQCTQVTVSS”, the “polyreactivity (PSR sort gate)” value is reported as “high polyreactivity”.
In the case of “QVQLVESGGGLVQAGGSLRLSCAASGGTFSYNAMGWYRQAPGKERELVAAISWSGTRTYYADSVKGRFTISRDNAKNTVYLQMNSLKPEDTAVYYCNKPPPNRGRYDYWGQGTQVTVSS”, the “polyreactivity (PSR sort gate)” value is reported as “low polyreactivity”.
In the case of “QVQLVESGGGLVQAGGSLRLSCAASGGTFTHYGMGWYRQAPGKERELVAAITWTASSTYYADSVKGRFTISRDNAKNTVYLQMNSLKPEDTAVYYCATSYYYWGHTYDYWGQGTQVTVSS”, the “polyreactivity (PSR sort gate)” value is reported as “low polyreactivity”.
In the case of “QVQLVESGGGLVQAGGSLRLSCAASGGTFTIYAMGWYRQAPGKERELVATINRGDRTNYADSVKGRFTISRDNAKNTVYLQMNSLKPEDTAVYYCAADFYYWYRGVYFVTRNYYWGQGTQVTVSS”, the “polyreactivity (PSR sort gate)” value is reported as “high polyreactivity”.
In the case of “QVQLVESGGGLVQAGGSLRLSCAASGGTFVRYVMGWYRPAPGKERELVAAISGSGGSTYYADTVKGRFTISRDNAKNTVYLQMNSLKPEASAVYYCASVYYWSKFYYWGQGTQVTVSS”, the “polyreactivity (PSR sort gate)” value is reported as “high polyreactivity”.
With “QVQLVESGGGLVQAGGSLRLSCAASGGTFVSNAMGWYRHAPGKERELVAAITTGGTTYADSVKGRFTISRDNAKNSVYLQMKSLKPEDSAVYYCAADIYLLILGRSILQFDYWGQGTQVTVSS” the “polyreactivity (PSR sort gate)” value was “low polyreactivity”.
